Target: GLP-2R (UniProt O95838)
Test: cell-based or functional assay

Sequence of GLP-2R (O95838 whole entry): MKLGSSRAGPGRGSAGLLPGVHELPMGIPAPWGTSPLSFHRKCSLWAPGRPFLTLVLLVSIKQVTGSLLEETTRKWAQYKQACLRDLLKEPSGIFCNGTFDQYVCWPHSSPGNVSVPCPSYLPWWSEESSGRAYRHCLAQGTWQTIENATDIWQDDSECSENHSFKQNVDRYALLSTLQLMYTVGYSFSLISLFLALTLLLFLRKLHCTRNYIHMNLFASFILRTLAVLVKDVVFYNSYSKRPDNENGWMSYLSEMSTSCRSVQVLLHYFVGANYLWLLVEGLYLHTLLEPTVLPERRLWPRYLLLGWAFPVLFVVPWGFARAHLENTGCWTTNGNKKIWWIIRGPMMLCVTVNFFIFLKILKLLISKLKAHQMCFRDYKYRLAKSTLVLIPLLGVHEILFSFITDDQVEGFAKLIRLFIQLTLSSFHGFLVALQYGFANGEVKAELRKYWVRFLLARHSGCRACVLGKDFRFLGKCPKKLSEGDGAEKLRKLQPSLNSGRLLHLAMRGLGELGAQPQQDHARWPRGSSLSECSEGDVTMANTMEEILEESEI

EC50, luciferase reporter in GLP-2R/Luc-CHO cells (6 h stimulation): 4.7 nM
Substance: GLP-2 (from UniProt P01275 146-178) (peptide)

Reference: patent US20220073563A1
